{"source": "patent US20240116985A1", "about": "(published 2024)", "note": "Starred links: 1 amine or outer side, 2 acyl side, 3 side chain; linkers in the order of their positions; H or OH if unused. Positions of bridges follow the written chain, without caps; N, C: chain ends. Non-standard residues stand in square brackets, D forms with d. Primed or numbered codes have the meaning given here. *: point of attachment. PyrS2″ = (S)-3-amino-1-((pent-4-en-1-yloxy)carbonyl)pyrrolidine-3-carboxylic acid (stapling residue), C=CCCCOC(=O)N1CC[C@@](N[*:1])(C(=O)[*:2])C1; HypBzEs3OAllyl = (2R,4S)-4-((3-(allyloxy)benzoyl)oxy)pyrrolidine-2-carboxylic acid, C=CCOc1cccc(C(=O)O[C@H]2C[C@H](C(=O)[*:2])N([*:1])C2)c1; B5(18) = 2,2-bis(4-pentenyl)glycine (2-amino-2-(pent-4-en-1-yl)hept-6-enoic acid), stitching residue, C=CCCCC(CCCC=C)(N[*:1])C(=O)[*:2]; B5(4) = 2,2-bis(4-pentenyl)glycine = 2-amino-2-(pent-4-en-1-yl)hept-6-enoic acid (stitching residue), C=CCCCC(CCCC=C)(N[*:1])C(=O)[*:2]; (Me2NPrPip)GlnR″ = Glu side chain amide with 4-(3-(dimethylamino)propyl)piperazine, CN(C)CCCN1CCN(C(=O)CC[C@H](N[*:1])C(=O)[*:2])CC1; TfeGA = (S)-2-amino-3-((carboxymethyl)(2,2,2-trifluoroethyl)amino)propanoic acid, O=C([C@H](CN(CC(=O)[*:3])CC(F)(F)F)N[*:1])[*:2]; PyrS2 = (S)-3-amino-1-((pent-4-en-1-yloxy)carbonyl)pyrrolidine-3-carboxylic acid, C=CCCCOC(=O)N1CC[C@@](N[*:1])(C(=O)[*:2])C1; B5(7) = 2-amino-2-(pent-4-en-1-yl)hept-6-enoic acid, two olefinic side chains, C=CCCCC(CCCC=C)(N[*:1])C(=O)[*:2]; (bismethoxyethylamine)GlnR″ = N5,N5-bis(2-methoxyethyl)-L-glutamine, COCCN(CCOC)C(=O)CC[C@H](N[*:1])C(=O)[*:2]; B5(3) = 2,2-bis(4-pentenyl)glycine (stitching residue), C=CCCCC(CCCC=C)(N[*:1])C(=O)[*:2]; Phe(3-COOH) = N[C@@H](Cc1cccc(C(=O)O)c1)C(=O)O; 2F3MeF = Cc1cccc(C[C@H](N[*:1])C(=O)[*:2])c1F; Phe(2-CF3) = N[C@@H](Cc1ccccc1C(F)(F)F)C(=O)O; Phe(2-Cl) = N[C@@H](Cc1ccccc1Cl)C(=O)O; Bta = N[C@@H](Cc1csc2ccccc12)C(=O)O; αAllylPro = C=CC[C@@]1(C(=O)O)CCCN1; tBuAla = CC(C)(C)C[C@H](N)C(=O)O; 3Thi = N[C@@H](Cc1ccsc1)C(=O)O; S8 = C=CCCCCCC[C@](C)(N)C(=O)O; hSer = N[C@@H](CCO)C(=O)O; 2F3MeF(3) = Phe analogue; Abu = CC[C@H](N)C(=O)O; Aib = CC(C)(N)C(=O)O; Moc = COC(=O)*"}
{"target": "T1, beta-catenin in DLD1 TCF/LEF luciferase reporter cells (UniProt P35222 1-781)", "T1 sequence (looked up)": "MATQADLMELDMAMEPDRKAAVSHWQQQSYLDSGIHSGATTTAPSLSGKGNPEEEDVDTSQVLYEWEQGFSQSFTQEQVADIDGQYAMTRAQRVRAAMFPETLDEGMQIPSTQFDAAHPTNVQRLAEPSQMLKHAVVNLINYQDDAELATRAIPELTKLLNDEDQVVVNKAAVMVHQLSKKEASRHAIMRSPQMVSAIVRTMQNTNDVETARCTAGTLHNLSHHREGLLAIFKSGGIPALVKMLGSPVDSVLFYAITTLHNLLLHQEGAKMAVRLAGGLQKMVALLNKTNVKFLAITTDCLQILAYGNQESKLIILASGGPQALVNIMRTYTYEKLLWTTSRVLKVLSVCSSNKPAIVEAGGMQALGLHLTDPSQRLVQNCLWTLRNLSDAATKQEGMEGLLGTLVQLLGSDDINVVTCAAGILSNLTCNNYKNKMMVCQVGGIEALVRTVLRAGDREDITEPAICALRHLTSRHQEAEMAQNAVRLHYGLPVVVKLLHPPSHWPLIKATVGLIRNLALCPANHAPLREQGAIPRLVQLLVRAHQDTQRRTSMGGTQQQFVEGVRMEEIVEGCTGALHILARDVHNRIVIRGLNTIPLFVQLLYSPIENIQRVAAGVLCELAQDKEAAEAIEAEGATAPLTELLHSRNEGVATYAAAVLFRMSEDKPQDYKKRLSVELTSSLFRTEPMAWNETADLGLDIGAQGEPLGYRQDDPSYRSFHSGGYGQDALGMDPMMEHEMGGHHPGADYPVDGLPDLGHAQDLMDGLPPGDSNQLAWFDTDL", "assay": "cell-based or functional assay", "units": {"DLD1 reporter assay Abs IC50": "µM"}}
{"binder": "Ac-[αAllylPro]D[tBuAla][B5(3)]D[TfeGA]AAFS[S8][Phe(2-Cl)][Bta][hSer]-NH2 (staple 1-4, 4-11; also: later eluting isomer)", "note": "[I-999]", "DLD1 reporter assay Abs IC50": 11.1}
{"binder": "Ac-[αAllylPro]D[tBuAla][B5(3)]D[TfeGA]AAF[hSer][S8][Phe(2-Cl)][Bta][hSer]-NH2 (staple 1-4, 4-11)", "note": "[I-1000]", "DLD1 reporter assay Abs IC50": 8}
{"binder": "Ac-[αAllylPro]D[tBuAla][B5(3)][3Thi][TfeGA]AAFN[PyrS2″]D[Bta]Q-NH2 (staple 1-4, 4-11)", "note": "[I-1001]", "DLD1 reporter assay Abs IC50": "> 20"}
{"binder": "Ac-[αAllylPro]D[tBuAla][B5(18)]D[TfeGA]ALFN[PyrS2″][Phe(2-Cl)][Bta]Q-NH2 (staple 1-4, 4-11)", "note": "[I-1002]", "DLD1 reporter assay Abs IC50": "> 20"}
{"binder": "Ac-[αAllylPro]D[tBuAla][B5(18)]D[TfeGA]ASFN[PyrS2″][Phe(2-Cl)][Bta]Q-NH2 (staple 1-4, 4-11)", "note": "[I-1004]", "DLD1 reporter assay Abs IC50": "> 20"}
{"binder": "Ac-[αAllylPro]D[tBuAla][B5(18)]D[TfeGA]LAFN[PyrS2″][Phe(2-Cl)][Bta]Q-NH2 (staple 1-4, 4-11)", "note": "[I-1007]", "DLD1 reporter assay Abs IC50": 3.3}
{"binder": "Ac-[αAllylPro]D[tBuAla][B5(18)]D[TfeGA]FAFN[PyrS2″][Phe(2-Cl)][Bta]Q-NH2 (staple 1-4, 4-11)", "note": "[I-1008]", "DLD1 reporter assay Abs IC50": 13}
{"binder": "Ac-[αAllylPro]D[tBuAla][B5(18)]D[TfeGA]KAFN[PyrS2″][Phe(2-Cl)][Bta]Q-NH2 (staple 1-4, 4-11)", "note": "[I-1011]", "DLD1 reporter assay Abs IC50": "> 20"}
{"binder": "Ac-[αAllylPro]D[tBuAla][B5(18)]DDAAFT[PyrS2″][Phe(2-Cl)][Bta]S-NH2 (staple 1-4, 4-11)", "note": "[I-1015]", "DLD1 reporter assay Abs IC50": 9}
{"binder": "Ac-[αAllylPro]D[tBuAla][B5(18)]DNAAFT[PyrS2″][Phe(2-Cl)][Bta]S-NH2 (staple 1-4, 4-11)", "note": "[I-1016]", "DLD1 reporter assay Abs IC50": 21.4}
{"binder": "Ac-[αAllylPro]D[tBuAla][B5(18)]DDAAFS[PyrS2″][Phe(2-Cl)][Bta]Q-NH2 (staple 1-4, 4-11)", "note": "[I-1017]", "DLD1 reporter assay Abs IC50": "> 20"}
{"binder": "Ac-[αAllylPro]D[tBuAla][B5(18)]DDAAFS[PyrS2″][Phe(2-Cl)][Bta]S-NH2 (staple 1-4, 4-11)", "note": "[I-1019]", "DLD1 reporter assay Abs IC50": 8.3}
{"target": "T2, B-cat-Halo (NanoBRET construct expressed in HEK293 cells) (UniProt P35222 1-781, HaloTag NanoBRET 618 Ligand bound in the assay)", "T2 sequence (looked up)": "T1 sequence (looked up)", "assay": "cell-based or functional assay", "units": {"NanoBRET Abs IC50": "µM"}}
{"binder": "Ac-[αAllylPro]D[tBuAla][B5(7)]DDAAFQ[PyrS2][3Thi][Bta]Q-NH2 (staple 1-4, 4-11)", "note": "[I-763]", "NanoBRET Abs IC50": 21.3}
{"binder": "Ac-[αAllylPro]D[tBuAla][B5(7)]DDAAFQ[PyrS2][3Thi][Bta]Q-NH2 (staple 1-4, 4-11)", "note": "[I-764]", "NanoBRET Abs IC50": 30.9}
{"target": "T3, B-cat-Halo (beta-catenin HaloTag NanoBRET construct expressed in HEK293 cells) (UniProt P35222 1-781)", "T3 sequence (looked up)": "T1 sequence (looked up)", "assay": "cell-based or functional assay", "units": {"NanoBRET Abs IC50": "µM"}}
{"binder": "Ac-[αAllylPro]D[tBuAla][B5(3)]D[Phe(3-COOH)]QAFL[PyrS2″][Phe(2-CF3)][RbMe2NapA]A-NH2 (staple 1-4, 4-11)", "note": "[Ac-PL3-Asp-Npg-B5-Asp-3COOHF-Gln-Ala-Phe-Leu-PyrS2-2F3MeF-RbMe2NapA-Ala-NH2]", "NanoBRET Abs IC50": 6.5}
{"binder": "Ac-[αAllylPro]D[tBuAla][B5(3)]D[Phe(3-COOH)]AAFL[PyrS2″][Phe(2-CF3)][SbMe2NapA]Q-NH2 (staple 1-4, 4-11)", "note": "[Ac-PL3-Asp-Npg-B5-Asp-3COOHF-Ala-Ala-Phe-Leu-PyrS2-2F3MeF-SbMe2NapA-Gln-NH2]", "NanoBRET Abs IC50": 16.5}
{"binder": "Ac-[αAllylPro]D[tBuAla][B5(3)]D[Phe(3-COOH)]QAFL[PyrS2″][2F3MeF(3)][SbMe2NapA]A-NH2 (staple 1-4, 4-11)", "note": "[Ac-PL3-Asp-Npg-B5-Asp-3COOHF-Gln-Ala-Phe-Leu-PyrS2-2F3MeF-SbMe2NapA-Ala-NH2]", "NanoBRET Abs IC50": "> 20"}
{"binder": "Ac-[αAllylPro]D[tBuAla][B5(3)]D[TfeGA]AAFL[PyrS2″][3Thi][Bta][(NHEt)GlnR]A-NH2 (staple 1-4, 4-11)", "note": "[Ac-PL3-Asp-Npg-B5-Asp-TfeGA-Ala-Ala-Phe-Leu-PyrS2-3Thi-BztA-[NHEt]GlnR-Ala-NH2]", "NanoBRET Abs IC50": 2.1}
{"binder": "Ac-[αAllylPro]D[tBuAla][B5(3)]D[Phe(3-COOH)]AAF[Abu][PyrS2″][2F3MeF][Bta][(NHEt)GlnR]A-NH2 (staple 1-4, 4-11)", "note": "[Ac-PL3-Asp-Npg-B5-Asp-3COOHF-Ala-Ala-Phe-Abu-PyrS2-2F3MeF-BztA-[NHEt]GlnR-Ala-NH2]", "NanoBRET Abs IC50": 1.8}
{"binder": "Ac-[αAllylPro]D[tBuAla][B5(3)]NT[Aib]AFN[PyrS2″][3Thi][Bta]K-NH2 (staple 1-4, 4-11)", "note": "[Ac-PL3-Asp-Npg-B5-Asn-Thr-Aib-Ala-Phe-Asn-PyrS2-3Thi-BztA-Lys-NH2]", "NanoBRET Abs IC50": "> 20"}
{"binder": "Ac-[αAllylPro]D[tBuAla][B5(3)]NT[Aib]AFN[PyrS2″][3Thi][Bta]Y-NH2 (staple 1-4, 4-11)", "note": "[Ac-PL3-Asp-Npg-B5-Asn-Thr-Aib-Ala-Phe-Asn-PyrS2-3Thi-BztA-Tyr-NH2]", "NanoBRET Abs IC50": "> 20"}
{"binder": "Ac-[αAllylPro]D[tBuAla][B5(3)]D[Phe(3-COOH)]AAFL[PyrS2″][Phe(2-CF3)][2F3MeW]Q-NH2 (staple 1-4, 4-11)", "note": "[Ac-PL3-Asp-Npg-B5-Asp-3COOHF-Ala-Ala-Phe-Leu-PyrS2-2F3MeF-2F3MeW-Gln-NH2]", "NanoBRET Abs IC50": "> 20"}
{"binder": "Ac-[αAllylPro]D[tBuAla][B5(3)]D[Phe(3-COOH)]QAFL[PyrS2″][Phe(2-CF3)][2F3MeW]A-NH2 (staple 1-4, 4-11)", "note": "[Ac-PL3-Asp-Npg-B5-Asp-3COOHF-Gln-Ala-Phe-Leu-PyrS2-2F3MeF-2F3MeW-Ala-NH2]", "NanoBRET Abs IC50": "> 20"}
{"target": "T4, Bcat-Halo (UniProt P35222 1-781)", "T4 sequence (looked up)": "T1 sequence (looked up)", "assay": "cell-based or functional assay", "units": {"NanoBRET Abs IC50": "µM"}}
{"binder": "Ac-[αAllylPro]D[tBuAla][B5(4)]D[Phe(3-COOH)][(bismethoxyethylamine)GlnR″]AFL[PyrS2″][2F3MeF][Bta]A-NH2 (staple 1-4, 4-11)", "note": "[I-2322]", "NanoBRET Abs IC50": 1.8}
{"binder": "Ac-[αAllylPro]D[tBuAla][B5(4)]D[Phe(3-COOH)][(Me2NPrPip)GlnR″]AFL[PyrS2″][2F3MeF][Bta]A-NH2 (staple 1-4, 4-11)", "note": "[I-2323]", "NanoBRET Abs IC50": 17.7}
{"binder": "Moc-[αAllylPro]D[tBuAla][B5(3)]D[Phe(3-COOH)]AAFL[PyrS2″][Phe(2-Cl)][Bta]A-NH2 (staple 1-4, 4-11)", "note": "[I-2324]", "NanoBRET Abs IC50": 14.8}
{"binder": "Ac-[HypBzEs3OAllyl]D[tBuAla][B5(3)]D[TfeGA]AAFL[PyrS2″][3Thi][Bta]Q-NH2 (staple 1-4, 4-11; also: staple -CH=CH- reduced to -CH2-CH2-)", "note": "[I-2328]", "NanoBRET Abs IC50": "> 20"}
{"binder": "Ac-[αAllylPro]D[tBuAla][B5(3)]N[Phe(3-COOH)]AAFN[PyrS2″][3Thi][Bta]Q-NH2 (staple 1-4, 4-11)", "note": "[I-2335]", "NanoBRET Abs IC50": 37}
